Laboratory results taken from patent EP4700044A1, “PROTEIN ANALOGUE AND USE THEREOF” (Shanghai Duomirui Biotechnology., Ltd., priority 2023, dated 2024).

Biological target: T1, FGFR1c and the cofactor β-Klotho (Homo sapiens, UniProt P11362+Q86Z14)
T1 construct: host or cells: iLite FGF21 assay ready cells (genetically engineered reporter gene cell line)
Test: dual-luciferase reporter gene assay in iLite FGF21 assay ready cells
Type: cell-based
Conditions: Example 6, four-parameter fitting
Excerpt: iLite FGF21 assay ready cells (purchased from SAVR) is a genetically engineered reporter gene cell line that responds to signals downstream to FGF21 agonism through the expression of firefly luciferase. The receptor FGFR1c and the cofactor β-Klotho were co-overexpressed on the surface of iLite FGF21 assay ready cells and have undergone genetic optimization to enhance sensitivity, such that FGF21 will cause an increase in luciferase expression in a dose-response manner. The luciferase activity detection kit was purchased from Promega (catalog number #E2980).
iLite FGF21 assay ready cells were cultured adherently in basal medium (DMEM Gluta Max, purchased from Gibco) containing 10% fetal bovine serum (FBS, purchased from Gibco) and 1% penicillin/streptomycin (purchased from Gibco). For the activity determination experiment, […] cells per well and test samples such as FGF21 mutant proteins and FGF21 conjugate molecules modified with albumin-binding agent were added to all-white 96-well culture plates (purchased from Corning), and the chemiluminescence values were detected in a microplate reader according to the instructions of the luciferase activity detection kit. Finally, the half-maximal effective concentration (EC50) values of the tested samples were obtained by means of four-parameter fitting.

T1 sequence (P11362 22-822): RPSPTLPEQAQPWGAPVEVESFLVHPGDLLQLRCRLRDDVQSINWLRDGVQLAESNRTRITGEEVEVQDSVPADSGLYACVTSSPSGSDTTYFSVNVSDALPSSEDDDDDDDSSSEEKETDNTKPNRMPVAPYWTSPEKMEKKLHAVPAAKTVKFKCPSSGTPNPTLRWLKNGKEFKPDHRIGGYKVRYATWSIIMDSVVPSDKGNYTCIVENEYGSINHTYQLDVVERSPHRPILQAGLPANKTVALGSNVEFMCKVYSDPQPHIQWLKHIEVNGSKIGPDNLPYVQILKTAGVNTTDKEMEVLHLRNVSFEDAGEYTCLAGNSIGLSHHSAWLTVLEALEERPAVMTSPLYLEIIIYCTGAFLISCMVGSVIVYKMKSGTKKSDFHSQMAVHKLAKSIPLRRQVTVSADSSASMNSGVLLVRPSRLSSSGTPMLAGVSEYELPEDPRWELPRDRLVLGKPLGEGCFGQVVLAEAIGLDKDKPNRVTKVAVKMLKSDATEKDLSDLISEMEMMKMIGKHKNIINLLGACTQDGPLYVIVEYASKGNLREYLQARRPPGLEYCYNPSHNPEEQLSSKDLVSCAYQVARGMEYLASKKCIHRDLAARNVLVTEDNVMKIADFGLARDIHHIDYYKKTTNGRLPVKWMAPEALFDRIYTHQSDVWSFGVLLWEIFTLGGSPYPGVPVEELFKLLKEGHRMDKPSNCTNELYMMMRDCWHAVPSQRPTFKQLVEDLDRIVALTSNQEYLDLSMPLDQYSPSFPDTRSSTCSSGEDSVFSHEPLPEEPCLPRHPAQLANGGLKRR
T1 sequence (Q86Z14 whole entry): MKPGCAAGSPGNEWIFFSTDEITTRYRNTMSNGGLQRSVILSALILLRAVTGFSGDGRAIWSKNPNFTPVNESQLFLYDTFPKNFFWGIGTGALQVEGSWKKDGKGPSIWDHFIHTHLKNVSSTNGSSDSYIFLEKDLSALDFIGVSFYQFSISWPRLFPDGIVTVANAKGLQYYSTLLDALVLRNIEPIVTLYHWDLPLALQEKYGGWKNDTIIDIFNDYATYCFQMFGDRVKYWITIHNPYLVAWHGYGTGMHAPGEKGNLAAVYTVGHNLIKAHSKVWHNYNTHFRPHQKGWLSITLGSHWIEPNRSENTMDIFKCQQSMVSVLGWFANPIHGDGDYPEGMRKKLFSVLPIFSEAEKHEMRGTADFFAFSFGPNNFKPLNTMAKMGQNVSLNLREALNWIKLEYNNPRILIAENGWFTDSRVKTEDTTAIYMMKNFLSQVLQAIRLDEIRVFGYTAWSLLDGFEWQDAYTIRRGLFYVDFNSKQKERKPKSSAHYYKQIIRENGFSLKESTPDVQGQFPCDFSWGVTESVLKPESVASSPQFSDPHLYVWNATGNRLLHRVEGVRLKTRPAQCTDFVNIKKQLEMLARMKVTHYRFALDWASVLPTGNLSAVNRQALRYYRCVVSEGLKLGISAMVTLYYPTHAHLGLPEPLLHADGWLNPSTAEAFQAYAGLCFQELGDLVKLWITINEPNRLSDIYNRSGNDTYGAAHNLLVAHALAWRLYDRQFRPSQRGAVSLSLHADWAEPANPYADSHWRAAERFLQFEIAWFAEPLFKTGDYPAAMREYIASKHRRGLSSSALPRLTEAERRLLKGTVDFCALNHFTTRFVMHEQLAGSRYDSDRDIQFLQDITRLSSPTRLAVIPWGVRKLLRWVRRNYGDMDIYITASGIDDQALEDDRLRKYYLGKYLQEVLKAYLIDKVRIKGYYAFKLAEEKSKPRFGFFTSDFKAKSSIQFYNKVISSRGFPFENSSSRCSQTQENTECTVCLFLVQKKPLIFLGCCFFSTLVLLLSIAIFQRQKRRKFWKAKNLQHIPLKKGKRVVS

Molecule | EC50
Compound 5.4: FGF21K122C mutant (SEQ NO: 8) modified by the albumin-binding agent of Example 2.1 (conjugate, albumin-binding agent of Example 2.1) HPIPDSSPLLQFGGQVRQRYLYTDDAQQTEAHLEIREDGTVGGAADQSPESLLQLKALKPGVIQILGVKTSRFLCQRPDGALYGSLHFDPEACSFRERLLEDGYNVYQSEAHGLPLHLPGNCSPHRDPAPRGPARFLPLPGLPPAPPEPPGILAPQPPDVGSSDPLSMVGGSQGRSPSYES | 0.99 nM
Compound 5.6: FGF21D38C mutant (SEQ NO: 6) modified by the albumin-binding agent of Example 2.2 (conjugate, albumin-binding agent conjugated) HPIPDSSPLLQFGGQVRQRYLYTDDAQQTEAHLEIRECGTVGGAADQSPESLLQLKALKPGVIQILGVKTSRFLCQRPDGALYGSLHFDPEACSFRERLLEDGYNVYQSEAHGLPLHLPGNKSPHRDPAPRGPARFLPLPGLPPAPPEPPGILAPQPPDVGSSDPLSMVGGSQGRSPSYES | 2.06 nM
Compound 5.9: FGF21H125C mutant (SEQ NO: 9) modified by the albumin-binding agent of Example 2.2 (conjugate, albumin-binding agent conjugated) HPIPDSSPLLQFGGQVRQRYLYTDDAQQTEAHLEIREDGTVGGAADQSPESLLQLKALKPGVIQILGVKTSRFLCQRPDGALYGSLHFDPEACSFRERLLEDGYNVYQSEAHGLPLHLPGNKSPCRDPAPRGPARFLPLPGLPPAPPEPPGILAPQPPDVGSSDPLSMVGGSQGRSPSYES | 1.18 nM
Compound 5.1: FGF21E30C mutant (SEQ NO: 5) modified by the albumin-binding agent of Example 2.1 (conjugate, albumin-binding agent of Example 2.1) HPIPDSSPLLQFGGQVRQRYLYTDDAQQTCAHLEIREDGTVGGAADQSPESLLQLKALKPGVIQILGVKTSRFLCQRPDGALYGSLHFDPEACSFRERLLEDGYNVYQSEAHGLPLHLPGNKSPHRDPAPRGPARFLPLPGLPPAPPEPPGILAPQPPDVGSSDPLSMVGGSQGRSPSYES | 4.61 nM
Compound 5.12: FGF21H125C mutant (SEQ NO: 9) modified by the albumin-binding agent of Example 2.3 (conjugate, albumin-binding agent of Example 2.3) HPIPDSSPLLQFGGQVRQRYLYTDDAQQTEAHLEIREDGTVGGAADQSPESLLQLKALKPGVIQILGVKTSRFLCQRPDGALYGSLHFDPEACSFRERLLEDGYNVYQSEAHGLPLHLPGNKSPCRDPAPRGPARFLPLPGLPPAPPEPPGILAPQPPDVGSSDPLSMVGGSQGRSPSYES | 1.4 nM
Compound 5.5: FGF21H125C mutant (SEQ NO: 9) modified by the albumin-binding agent of Example 2.1 (conjugate, albumin-binding agent of Example 2.1) HPIPDSSPLLQFGGQVRQRYLYTDDAQQTEAHLEIREDGTVGGAADQSPESLLQLKALKPGVIQILGVKTSRFLCQRPDGALYGSLHFDPEACSFRERLLEDGYNVYQSEAHGLPLHLPGNKSPCRDPAPRGPARFLPLPGLPPAPPEPPGILAPQPPDVGSSDPLSMVGGSQGRSPSYES | 0.52 nM
Compound 5.13: FGF21D46C mutant (SEQ NO: 7) modified by the albumin-binding agent of Example 2.4 (conjugate, albumin-binding agent of Example 2.4) HPIPDSSPLLQFGGQVRQRYLYTDDAQQTEAHLEIREDGTVGGAACQSPESLLQLKALKPGVIQILGVKTSRFLCQRPDGALYGSLHFDPEACSFRERLLEDGYNVYQSEAHGLPLHLPGNKSPHRDPAPRGPARFLPLPGLPPAPPEPPGILAPQPPDVGSSDPLSMVGGSQGRSPSYES | 1.84 nM
Compound 5.10: FGF21D46C mutant (SEQ NO: 7) modified by the albumin-binding agent of Example 2.3 (conjugate, albumin-binding agent of Example 2.3) HPIPDSSPLLQFGGQVRQRYLYTDDAQQTEAHLEIREDGTVGGAACQSPESLLQLKALKPGVIQILGVKTSRFLCQRPDGALYGSLHFDPEACSFRERLLEDGYNVYQSEAHGLPLHLPGNKSPHRDPAPRGPARFLPLPGLPPAPPEPPGILAPQPPDVGSSDPLSMVGGSQGRSPSYES | 2.69 nM
Compound 5.11: FGF21K122C mutant (SEQ NO: 8) modified by the albumin-binding agent of Example 2.3 (conjugate, albumin-binding agent of Example 2.3) HPIPDSSPLLQFGGQVRQRYLYTDDAQQTEAHLEIREDGTVGGAADQSPESLLQLKALKPGVIQILGVKTSRFLCQRPDGALYGSLHFDPEACSFRERLLEDGYNVYQSEAHGLPLHLPGNCSPHRDPAPRGPARFLPLPGLPPAPPEPPGILAPQPPDVGSSDPLSMVGGSQGRSPSYES | 2.09 nM
Compound 5.8: FGF21K122C mutant (SEQ NO: 8) modified by the albumin-binding agent of Example 2.2 (conjugate, albumin-binding agent conjugated) HPIPDSSPLLQFGGQVRQRYLYTDDAQQTEAHLEIREDGTVGGAADQSPESLLQLKALKPGVIQILGVKTSRFLCQRPDGALYGSLHFDPEACSFRERLLEDGYNVYQSEAHGLPLHLPGNCSPHRDPAPRGPARFLPLPGLPPAPPEPPGILAPQPPDVGSSDPLSMVGGSQGRSPSYES | 1.13 nM
Compound 5.14: FGF21K122C mutant (SEQ NO: 8) modified by the albumin-binding agent of Example 2.4 (conjugate, albumin-binding agent of Example 2.4) HPIPDSSPLLQFGGQVRQRYLYTDDAQQTEAHLEIREDGTVGGAADQSPESLLQLKALKPGVIQILGVKTSRFLCQRPDGALYGSLHFDPEACSFRERLLEDGYNVYQSEAHGLPLHLPGNCSPHRDPAPRGPARFLPLPGLPPAPPEPPGILAPQPPDVGSSDPLSMVGGSQGRSPSYES | 1.02 nM
Compound 5.2: FGF21D38C mutant (SEQ NO: 6) modified by the albumin-binding agent of Example 2.1 (conjugate, albumin-binding agent of Example 2.1) HPIPDSSPLLQFGGQVRQRYLYTDDAQQTEAHLEIRECGTVGGAADQSPESLLQLKALKPGVIQILGVKTSRFLCQRPDGALYGSLHFDPEACSFRERLLEDGYNVYQSEAHGLPLHLPGNKSPHRDPAPRGPARFLPLPGLPPAPPEPPGILAPQPPDVGSSDPLSMVGGSQGRSPSYES | 1.99 nM
